From article PMC7078158, “Enzymes Catalyzing Crotonyl-CoA Conversion to Acetoacetyl-CoA During the Autotrophic CO2 Fixation in Metallosphaera sedula” (Frontiers in Microbiology, 2020) come the findings set out here.

By Km is commonly meant the substrate concentration at which the rate is half of its maximum.

Common to all, as to assay type: biochemical, Metallosphaera sedula
Substrate in series [1]: C=CC(=O)SCCNC(=O)CCNC(=O)[C@H](O)C(C)(C)COP(=O)(O)OP(=O)(O)OC[C@H]1O[C@@H](n2cnc3c(N)ncnc32)[C@H](O)[C@@H]1OP(=O)(O)O
As to the kind of experiment: UHPLC, 3-hydroxypropionyl-CoA formation. Particulars: hydratase reaction, 100 mM Tris-HCl pH 7.8, 65 °C, apparent Km. The text has this:
UHPLC, 3-hydroxypropionyl-CoA formation on crotonyl-CoA hydratase Msed_0384

Substrate in series [2]: C=C(C)C(=O)SCCNC(=O)CCNC(=O)[C@H](O)C(C)(C)COP(=O)(O)OP(=O)(O)OC[C@H]1O[C@@H](n2cnc3c(N)ncnc32)[C@H](O)[C@@H]1OP(=O)(O)O
As to the kind of experiment: UHPLC, 3-hydroxy-2-methylpropionyl-CoA formation. Particulars: hydratase reaction, 100 mM Tris-HCl pH 7.8, 65 °C, apparent Km. The text has this: UHPLC, 3-hydroxy-2-methylpropionyl-CoA formation on crotonyl-CoA hydratase Msed_0384

Substrate in series [3]: C[C@H](O)CC(=O)SCCNC(=O)CCNC(=O)[C@H](O)C(C)(C)COP(=O)(O)OP(=O)(O)OC[C@H]1O[C@@H](n2cnc3c(N)ncnc32)[C@H](O)[C@@H]1OP(=O)(O)O
In words: Ccr-coupled dehydratase assay, UHPLC. Particulars: dehydratase reaction, 100 mM Tris-HCl pH 7.8, 42 °C, 1 mM NADPH and NaHCO3 for coupling enzyme, apparent Km. An excerpt: Ccr-coupled dehydratase assay, UHPLC on crotonyl-CoA hydratase Msed_0384

Substrate in series [4]: CCCCC/C=C/C(=O)SCCNC(=O)CCNC(=O)[C@H](O)C(C)(C)COP(=O)(O)OP(=O)(O)OC[C@H]1O[C@@H](n2cnc3c(N)ncnc32)[C@H](O)[C@@H]1OP(=O)(O)O
In words: UHPLC, 3-hydroxyoctanoyl-CoA formation. Particulars: hydratase reaction, 100 mM Tris-HCl pH 7.8, 65 °C, apparent Km. An excerpt: UHPLC, 3-hydroxyoctanoyl-CoA formation on crotonyl-CoA hydratase Msed_0384

Substrate in series [5]: C/C=C/C(=O)SCCNC(=O)CCNC(=O)[C@H](O)C(C)(C)COP(=O)(O)OP(=O)(O)OC[C@H]1O[C@@H](n2cnc3c(N)ncnc32)[C@H](O)[C@@H]1OP(=O)(O)O
In words: UHPLC, 3-hydroxybutyryl-CoA formation. Particulars: hydratase reaction, 100 mM Tris-HCl pH 7.8, 65 °C, apparent Km. The text has this: UHPLC, 3-hydroxybutyryl-CoA formation on crotonyl-CoA hydratase Msed_0384

B1: crotonyl-CoA hydratase Msed_0384 (Metallosphaera sedula DSM 5348) (protein)
chain: MRTVIVEKGDVGIIRLNRPEKLNAINMEMVYDLVEALNELKSQVRAVIITGNGKAFSAGADVKEMLDMSIEQVTREGHMPLWDALRGFRKPVIAALNGVAAGGGLELAMACDMIVAGESARLGQPEINLGIIPGAGGTQRLTRTVGKYRAMEMVLTGRLITAWDAYRMGLVTKVVPDEALIPEAMRLAREITGKSGFAVELGKEAVNRALDTLLQQGLDLERRNFYVTLVSQDGREGMKAFLEKRKPEWKT
notes: full-length, N-terminal His10-tag (pET16b), recombinant in E. coli Rosetta 2 (DE3)
Turning to B1, the Km in series [1] is 180 ± 30 µM; in series [2], 70 ± 30 µM; in series [3], 50 ± 10 µM; in series [4], 500 ± 60 µM; in series [5], 220 ± 20 µM.
